Results reported in US20200407442A1 (WUXI BIOLOGICS IRELAND, published 2020).

Assays:
[1] = target: T1, full-length human LAG-3 on cells (human, UniProt P18627 23-525); assay: FACS competition on Flp-In-293 cells expressing human LAG-3: biotinylated BMK5 at 1 ug/mL, serially diluted antibody, Streptavidin-PE
T1 construct: Expressed on Flp-In-293, CHO or 293F transfectants; also called hPro1.FL; cell surface human LAG-3
T1 sequence: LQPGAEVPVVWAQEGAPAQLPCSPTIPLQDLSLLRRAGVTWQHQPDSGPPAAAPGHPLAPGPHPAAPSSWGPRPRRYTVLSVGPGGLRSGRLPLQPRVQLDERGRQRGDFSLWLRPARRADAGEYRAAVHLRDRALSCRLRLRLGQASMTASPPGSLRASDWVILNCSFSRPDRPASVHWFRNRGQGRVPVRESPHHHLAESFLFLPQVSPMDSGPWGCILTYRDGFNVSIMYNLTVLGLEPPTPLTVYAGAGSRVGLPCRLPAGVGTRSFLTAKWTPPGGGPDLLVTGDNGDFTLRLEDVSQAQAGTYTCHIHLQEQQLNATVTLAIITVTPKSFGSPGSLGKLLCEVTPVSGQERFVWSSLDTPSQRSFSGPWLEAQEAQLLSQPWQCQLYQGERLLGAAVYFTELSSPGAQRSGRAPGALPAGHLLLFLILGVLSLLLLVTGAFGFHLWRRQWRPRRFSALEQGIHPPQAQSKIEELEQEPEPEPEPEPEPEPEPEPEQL
Method: The binding epitope of LAG-3 antibodies was binned against benchmark antibodies BMK1, BMK7 and BMK5 by FACS assay. Flp-In-293 cells expressing human LAG-3 at the cell surface were incubated with biotinylated benchmark antibodies at concentration of 1 μg/mL for 1 hour, followed by the adding of serially diluted LAG-3 antibodies. Streptavidin-PE antibody (Jackson Immunoresearch Lab) was used to detect the binding of benchmark antibodies to cells. The MFI was evaluated by flow cytometry and analyzed by FlowJo.

Variant 3: xPro1.FL-x3 = target: T2, Variant 3: xPro1.FL-x3 (human; mouse); assay: FACS, 1 ug/mL antibody, transfected 293F cells
T2 construct: Chimeric full-length LAG-3 on transfected 293F cells
T2 chain: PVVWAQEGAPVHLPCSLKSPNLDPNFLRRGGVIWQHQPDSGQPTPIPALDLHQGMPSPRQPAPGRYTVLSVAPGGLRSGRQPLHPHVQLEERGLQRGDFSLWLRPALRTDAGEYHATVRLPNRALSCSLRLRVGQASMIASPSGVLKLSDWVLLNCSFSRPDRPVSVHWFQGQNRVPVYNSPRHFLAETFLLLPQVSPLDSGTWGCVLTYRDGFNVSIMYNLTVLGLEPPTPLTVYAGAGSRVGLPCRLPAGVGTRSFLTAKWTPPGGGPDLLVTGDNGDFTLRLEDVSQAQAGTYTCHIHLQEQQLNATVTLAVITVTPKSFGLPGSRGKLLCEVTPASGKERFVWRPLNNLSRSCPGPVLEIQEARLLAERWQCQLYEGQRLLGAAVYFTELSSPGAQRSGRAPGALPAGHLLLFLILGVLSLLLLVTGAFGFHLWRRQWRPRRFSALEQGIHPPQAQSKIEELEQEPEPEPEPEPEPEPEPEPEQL

Variant 4: xPro1.FL-x4 = target: T3, Variant 4: xPro1.FL-x4 (human; mouse); assay: FACS, 1 ug/mL antibody, transfected 293F cells
T3 construct: Chimeric full-length LAG-3 on transfected 293F cells
T3 chain: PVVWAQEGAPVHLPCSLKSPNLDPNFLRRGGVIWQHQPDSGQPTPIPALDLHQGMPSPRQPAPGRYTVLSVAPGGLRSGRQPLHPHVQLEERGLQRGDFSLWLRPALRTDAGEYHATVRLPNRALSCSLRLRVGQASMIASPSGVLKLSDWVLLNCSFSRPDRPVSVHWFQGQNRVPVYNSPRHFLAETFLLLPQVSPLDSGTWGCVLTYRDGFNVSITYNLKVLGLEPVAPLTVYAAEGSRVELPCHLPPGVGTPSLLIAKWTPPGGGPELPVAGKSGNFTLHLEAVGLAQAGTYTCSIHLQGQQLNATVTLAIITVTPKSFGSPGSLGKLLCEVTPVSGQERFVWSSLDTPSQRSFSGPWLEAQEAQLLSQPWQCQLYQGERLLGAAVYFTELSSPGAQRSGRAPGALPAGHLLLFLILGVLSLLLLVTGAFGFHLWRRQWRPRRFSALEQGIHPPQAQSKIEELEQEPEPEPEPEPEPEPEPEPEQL

Variant 7: xPro1.FL-x7 = target: T4, Variant 7: xPro1.FL-x7 (human; mouse); assay: FACS, 1 ug/mL antibody, transfected 293F cells
T4 construct: Chimeric full-length LAG-3 on transfected 293F cells
T4 chain: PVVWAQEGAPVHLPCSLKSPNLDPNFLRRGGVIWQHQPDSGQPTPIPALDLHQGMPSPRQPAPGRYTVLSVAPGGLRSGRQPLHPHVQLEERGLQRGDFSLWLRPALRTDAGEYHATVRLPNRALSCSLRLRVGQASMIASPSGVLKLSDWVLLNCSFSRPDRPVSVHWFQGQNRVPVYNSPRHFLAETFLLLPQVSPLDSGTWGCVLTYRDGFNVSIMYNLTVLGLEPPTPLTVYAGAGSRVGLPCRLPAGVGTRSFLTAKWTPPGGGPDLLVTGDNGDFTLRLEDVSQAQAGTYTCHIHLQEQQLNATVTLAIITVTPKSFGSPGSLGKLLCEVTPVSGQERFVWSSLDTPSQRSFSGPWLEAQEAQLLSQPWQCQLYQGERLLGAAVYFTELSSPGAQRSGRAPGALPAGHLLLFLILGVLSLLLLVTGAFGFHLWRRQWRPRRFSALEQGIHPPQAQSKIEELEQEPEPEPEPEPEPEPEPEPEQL

B1: 1.53.3-uAb-IgG4k (antibody, V domains shown)
VH: QVQLQQWGAGLLKPSETLSLTCGVYGGSFSGYYWSWIRQPPGMGLEWIGEINHRGNTNYNPSLKSRVTISEDTSKNQFSLRLSSVTAADTAVYFCTRGEDYSDYDYYGDFWGQGTLVTVSS
VL: EIVLTQSPATLSLSQGERATLSCRASQSISSYLAWYQQKPGQAPRLLIYAASNRATGIPARFSGSGSGTDFTLTISSLEPEDFAIYYCQQRSNWPLTFGGGTKVEIK
notes: Fully human antibody from OMT rats; IgG4 kappa by its name
[1]
  IC50 (read off the curve): ~1 nM
Variant 3: xPro1.FL-x3
  MFI: 41.7
  PE+ %: 2.03%
Variant 4: xPro1.FL-x4
  MFI: 41
  PE+ %: 1.42%
Variant 7: xPro1.FL-x7
  MFI: 39.3
  PE+ %: 1.52%
